From publication PMC9717613
Positions count from the first letter of the chain named. Numbers in names are those of the source.

How the values were obtained:
purified protein [1] = substrate: Nc1ccccc1C(=O)C[C@H](N)C(=O)O; assay: purified protein; assay type: biochemical, Homo sapiens; details: 0-2 mM substrate, 0.10-1.00 uM enzyme
purified protein [2] = substrate: Nc1c(O)cccc1C(=O)CC(N)C(=O)O; assay: purified protein; details: HsKYNase_66; racemic substrate; in D2O-PBS (H2O value only in Figure 1f)

B1: HsKYNase (human kynureninase) (Homo sapiens; … (protein)
chain: MEPSSLELPADTVQRIAAELKCHPTDERVALHLDEEDKLRHFRECFYIPKIQDLPPVDLSLVNKDEDAIYFNGNSLGLQPKMVKTYLEEELDKWAKIAIYGWFEGDSPWIHYDESIVGLMKDIVGANEKEIVLMNTLTVNLHLLMLSFFKPTPKRYKILLEAKAFPSDHYAIESQLQLHGLNIEESMRIIKPREGEETLRIEDILEVIEKEGDSIAVILFSGIHYYTGQHFNIPAITKAGQAKGCYVGFDLAHAVGNVELYLHDWGVDFACWCGYKYLNSSPGGIAGAFIHEKHAHTIKPALVGWFGHELSTRFKMDNKLQLIPGVCGFRCSTPPILLVCILHASLEIFKQATMKALRKKSVLLTGYLEYLIKHNYGKDKAATKKPVVNIITPSHVEERGCQLTLTFNVPNKDVFQELEKRGVVCDKRNPNGIRVAPVPLYNSFHDVYKFTNLLTSILDSAETKN
- Km (purified protein [1]; HsKYNase_66): 27 µM
- kcat (purified protein [1]; HsKYNase_66): 1.54 s⁻¹
- kcat/Km (purified protein [1]; HsKYNase_66): 56000 M⁻¹ s⁻¹
- Km (purified protein [2]): 1370 ± 200 µM

B2: HsKYNase (human kynureninase) (Homo sapiens; A136T/A99I/E103F/F225Y/H102W/I110M/I331C/I405L/K106E/L72N/M189I/N333T/N67D/R107S/S274G/S341I/S408N/V104E) (protein)
chain: B1 chain with D106E, I110M, H111T, Y112G, V132A, I223V, S280A, S281G, P282A
- Km (purified protein [1]; HsKYNase_64): 36 µM
- kcat (purified protein [1]; HsKYNase_64): 0.24 s⁻¹
- kcat/Km (purified protein [1]; HsKYNase_64): 6700 M⁻¹ s⁻¹

B3: HsKYNase (human kynureninase) (Homo sapiens; … (protein)
chain: B1 chain with A68T, I110L, V132A, I223V, G274N, F306W
- Km (purified protein [1]; HsKYNase_95): 16 µM
- kcat (purified protein [1]; HsKYNase_95): 0.85 s⁻¹
- kcat/Km (purified protein [1]; HsKYNase_95): 55000 M⁻¹ s⁻¹

B4: HsKYNase (human kynureninase) (Homo sapiens) (protein)
chain: MEPSSLELPADTVQRIAAELKCHPTDERVALHLDEEDKLRHFRECFYIPKIQDLPPVDLSLVNKDENAIYFLGNSLGLQPKMVKTYLEEELDKWAKIAAYGHEVGKRPWITGDESIVGLMKDIVGANEKEIALMNALTVNLHLLMLSFFKPTPKRYKILLEAKAFPSDHYAIESQLQLHGLNIEESMRMIKPREGEETLRIEDILEVIEKEGDSIAVILFSGVHFYTGQHFNIPAITKAGQAKGCYVGFDLAHAVGNVELYLHDWGVDFACWCSYKYLNAGAGGIAGAFIHEKHAHTIKPALVGWFGHELSTRFKMDNKLQLIPGVCGFRISNPPILLVCSLHASLEIFKQATMKALRKKSVLLTGYLEYLIKHNYGKDKAATKKPVVNIITPSHVEERGCQLTITFSVPNKDVFQELEKRGVVCDKRNPNGIRVAPVPLYNSFHDVYKFTNLLTSILDSAETKN
- Km (purified protein [1]): 1570 µM
- kcat (purified protein [1]): 0.18 s⁻¹
- kcat/Km (purified protein [1]): 110 M⁻¹ s⁻¹

B5: HsKYNase (human kynureninase) (Homo sapiens; E103Q/F225Y/I331V/I405L/L72N/M189I/N67D/S274G/S408N) (protein)
chain: B4 chain with N67D, L72N, E103Q, M189I, F225Y, S274G, I331V, I405L, S408N
- Km (purified protein [1]; HsKYNase_46): 190 µM
- kcat (purified protein [1]; HsKYNase_46): 0.58 s⁻¹
- kcat/Km (purified protein [1]; HsKYNase_46): 3100 M⁻¹ s⁻¹
